Drawing on publication PMC6829469, “A Genome-Centric Approach Reveals a Novel Glycosyltransferase from the GA A07 Strain of Bacillus thuringiensis Responsible for Catalyzing 15-O-Glycosylation of Ganoderic Acid A” (International Journal of Molecular Sciences, 2019), this text covers Km, kcat and kcat/Km for two molecules.

Usually Km stands for the concentration of substrate that gives half-maximal velocity. As usually defined, the kcat is the maximal rate divided by the concentration of active sites. The term kcat/Km denotes the turnover number divided by the Michaelis constant.

Data set [1] deals with [H][C@@]12C[C@H](O)C3=C(C(=O)C[C@]4(C)[C@@]([H])([C@H](C)CC(=O)C[C@@H](C)C(=O)O)C[C@H](O)[C@@]34C)[C@@]1(C)CCC(=O)C2(C)C. The data set can be described thus: purified protein. The settings on record: 10 mM UDP-glucose, 10 mM MgCl2, 50 mM Tris pH 8.0, 40 °C.
Substrate in data set [2]: [H][C@@]12C[C@H](O)C3=C(C(=O)C[C@]4(C)[C@@]([H])([C@H](C)CC(=O)C[C@@H](C)C(=O)O)C[C@H](O)[C@@]34C)[C@@]1(C)CCC(=O)C2(C)C
The data set can be described thus: UPLC of GAA-15-O-beta-glucoside formation, Michaelis-Menten nonlinear fit. Type of data set: biochemical, Bacillus spizizenii. As to conditions: 10 mM UDP-glucose, 10 mM MgCl2, 50 mM Tris pH 8.0, 40 °C. An excerpt: UPLC of GAA-15-O-beta-glucoside formation, Michaelis-Menten nonlinear fit on BsUGT398

For the molecule BsUGT489 (Bacillus spizizenii), in data set [1], the Michaelis constant (Km) was 793.96 ± 124.09 µM, the kcat was determined as 0.934 ± 0.0626 s⁻¹ and the catalytic efficiency (kcat/Km) was 1180 ± 200 M⁻¹ s⁻¹.

B1: BsUGT398 (Bacillus spizizenii str. W23) (protein)
chain: MKTVLILNFPAEGHVNPTLGITKAFADRGYDVHYISTEKYKERLEAVGATVHLHQDLLRTTPINIASPNGILDFLKIHIKTSLDILHIVKELSKSIQFDFVYYDKFGAGELVRDYLNIPGISSSASFLFGEEHLKILPLHPDSEVPLQLDKQCEDLLLEMKQNYGVSPENMVQFMNNKGELNVVYTSRYFQPESHRFGDEFLFIGPSFPKRAEKTDFPTDKLKDEKVIYISMGTVLDETEEFFNLCIDAFSDVKGKVVIAAGEKADLTKLKQAPENFIIASYVPQLEVLEQSDVFITHGGMNSVNEGIHFNVPLVVMPHDKDQPMVAQRLTELQAGYTVSKDHVTAQSLKHAVEEVLNNDRYKEGIQKINRSFQDCMNMEEVMERIDQFIEQRK
notes: recombinant purified, obtained from the authors' previous study; GT1 family
In the case of B1, in data set [2], the Michaelis-Menten constant (Km) worked out at 90.71 ± 14.86 µM, the kcat stood at 0.14 ± 0.0051 s⁻¹ and the specificity constant (kcat/Km) was found to be 1540 ± 259 M⁻¹ s⁻¹.
